Consider 2 substances from article PMC13036776, “Structural and Kinetic Basis for the Rational Design of Next-Generation β‑Lactamase Inhibitors” (Journal of Medicinal Chemistry, 2026).

For this data set, the system named is O=C(Cc1cccs1)N[C@@H]1C(=O)N2C(C(=O)O)=C(/C=C/c3ccc([N+](=O)[O-])cc3[N+](=O)[O-])CS[C@H]12. The experiment in a line: purified protein. Type of data set: biochemical, Pseudomonas aeruginosa. Particulars: active site, catalytic S64 acylation (acyl-enzyme), pH 7.2.

For orientation: Km means the substrate concentration at which the rate is half of its maximum. As usually defined, the Vmax is the rate approached at saturating substrate. The term kcat denotes the number of substrate molecules converted per active site and unit of time at saturation. The kcat/Km is the turnover number divided by the Michaelis constant.

As for “PDC-3 (Pseudomonas-derived cephalosporinase-3, class C β-lactamase AmpC) (Pseudomonas aeruginosa PAO1)”, where the note is “general base K67, R349 anchor”, the Km was found to be 28 ± 1 µM, the Vmax is 82.2 µM/min, the kcat came out at 152 ± 15 s⁻¹ and the kcat/Km amounted to 5.4e+06 ± 500000 M⁻¹ s⁻¹.

Turning to “PDC-3 (Pseudomonas-derived cephalosporinase-3, class C β-lactamase AmpC) (Pseudomonas aeruginosa PAO1; R376A/T105A)”, for the setting “general base K67”, the Km amounted to 10.1 ± 1.5 µM, the Vmax stood at 55.8 µM/min, the kcat was determined as 85 ± 3 s⁻¹ and the kcat/Km is 8.4e+06 ± 1.3e+06 M⁻¹ s⁻¹.
